Measured values from PMC11484861 (Nature Communications, 2024).

Biological target: GFP-PDPK1 (human (cloned from HEK293T cells)) (UniProt O15530)
Experiment: MST

GFP-PDPK1 (human (cloned from HEK293T cells)), sequence (O15530 whole entry): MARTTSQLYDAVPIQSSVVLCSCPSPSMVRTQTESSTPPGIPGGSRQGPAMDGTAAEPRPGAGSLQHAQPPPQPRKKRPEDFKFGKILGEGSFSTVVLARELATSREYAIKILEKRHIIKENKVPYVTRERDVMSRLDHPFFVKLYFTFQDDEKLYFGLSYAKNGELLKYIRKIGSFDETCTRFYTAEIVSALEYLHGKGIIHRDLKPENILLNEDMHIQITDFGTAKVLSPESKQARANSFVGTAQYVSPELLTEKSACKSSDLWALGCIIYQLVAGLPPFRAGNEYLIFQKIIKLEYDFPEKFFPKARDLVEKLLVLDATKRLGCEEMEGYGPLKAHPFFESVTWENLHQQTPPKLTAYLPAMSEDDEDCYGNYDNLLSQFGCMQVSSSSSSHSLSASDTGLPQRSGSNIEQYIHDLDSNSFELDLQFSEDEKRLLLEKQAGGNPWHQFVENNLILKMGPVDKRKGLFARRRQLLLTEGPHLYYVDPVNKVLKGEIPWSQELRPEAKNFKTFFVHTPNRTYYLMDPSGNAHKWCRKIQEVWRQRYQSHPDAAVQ

For “unlabeled MΔβ3-5 (MST ligand) (from UniProt P0DTC5 1-222) (domain or fragment)”, the Kd was 37.8 µM.
